Patent US20240279358A1 (Alector, published 2024)
One block for each binder: values may come before it.

Columns and labels:
[1] = target: T1, human MerTK on M2c-differentiated human macrophages (human, UniProt Q12866 21-999); assay: cell-based or functional assay
T1 sequence: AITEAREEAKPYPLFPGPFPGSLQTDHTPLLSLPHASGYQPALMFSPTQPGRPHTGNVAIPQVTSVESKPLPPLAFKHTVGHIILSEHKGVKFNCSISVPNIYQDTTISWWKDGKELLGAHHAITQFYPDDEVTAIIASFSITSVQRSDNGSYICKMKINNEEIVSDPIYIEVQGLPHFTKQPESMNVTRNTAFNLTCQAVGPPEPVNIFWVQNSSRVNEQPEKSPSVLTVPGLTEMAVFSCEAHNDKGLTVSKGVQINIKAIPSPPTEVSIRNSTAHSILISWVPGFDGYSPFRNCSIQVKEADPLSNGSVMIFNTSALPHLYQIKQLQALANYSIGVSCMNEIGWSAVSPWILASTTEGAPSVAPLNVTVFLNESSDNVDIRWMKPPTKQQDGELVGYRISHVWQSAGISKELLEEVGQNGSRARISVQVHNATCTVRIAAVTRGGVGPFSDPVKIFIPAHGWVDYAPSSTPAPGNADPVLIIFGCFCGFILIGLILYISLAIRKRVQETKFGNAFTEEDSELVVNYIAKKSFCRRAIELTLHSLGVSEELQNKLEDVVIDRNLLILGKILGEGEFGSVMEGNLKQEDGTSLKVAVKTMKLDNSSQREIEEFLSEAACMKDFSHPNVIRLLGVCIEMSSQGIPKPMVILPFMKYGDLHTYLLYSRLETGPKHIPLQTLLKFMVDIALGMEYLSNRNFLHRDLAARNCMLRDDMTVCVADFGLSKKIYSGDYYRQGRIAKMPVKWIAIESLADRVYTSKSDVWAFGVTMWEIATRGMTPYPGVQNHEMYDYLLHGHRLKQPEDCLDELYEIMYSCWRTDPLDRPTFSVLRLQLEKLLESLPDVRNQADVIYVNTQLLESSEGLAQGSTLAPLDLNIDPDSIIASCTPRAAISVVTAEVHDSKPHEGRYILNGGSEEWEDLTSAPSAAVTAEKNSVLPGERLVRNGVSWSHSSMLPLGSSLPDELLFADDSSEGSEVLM

[2] = target: T1, human MerTK on M2c-differentiated human …; assay: FACS, Dylight650-conjugated antibody titrated on M2c-differentiated human macrophages; Kd fitted in Prism from MFI
Source text: (§1) Human macrophages were differentiated from human monocytes for 7 days in the presence of human M-CSF, resulting in M2c-differentiated human macrophages. After 7 days, the differentiated human macrophages were harvested (by scraping), resuspended in PBS, and plated on 96-well plates for use. CHO cells overexpressing human MerTK (CHO-huMerTK OE) or M2c-differentiated human macrophages were stained with Dylight650-conjugated monovalent anti-MerTK antibodies or bivalent anti-MerTK antibodies (i.e., anti-MerTK antibodies comprising two full-length heavy chains and two full-length light chains) for 30 min on ice. A range of antibody concentrations were used in these studies to obtain binding curves. […] Cells were fixed and then acquired on a BD FACS Canto II cytometer. The mean fluorescence intensity (MFI) was calculated using FlowJo software and Kd value was calculated using Prism software.

[3] = target: T2, recombinant human MerTK extracellular domain (human, UniProt Q12866 21-505); assay: SPR (Carterra LSA), antibody immobilised on an HC30 chip, MerTK ECD as analyte; estimate from a 1:1 fit
T2 construct: The entry starts with the native signal peptide, while the construct used a heterologous signal peptide; also called huMerTK; human MerTK ECD; not shown: tag
T2 sequence: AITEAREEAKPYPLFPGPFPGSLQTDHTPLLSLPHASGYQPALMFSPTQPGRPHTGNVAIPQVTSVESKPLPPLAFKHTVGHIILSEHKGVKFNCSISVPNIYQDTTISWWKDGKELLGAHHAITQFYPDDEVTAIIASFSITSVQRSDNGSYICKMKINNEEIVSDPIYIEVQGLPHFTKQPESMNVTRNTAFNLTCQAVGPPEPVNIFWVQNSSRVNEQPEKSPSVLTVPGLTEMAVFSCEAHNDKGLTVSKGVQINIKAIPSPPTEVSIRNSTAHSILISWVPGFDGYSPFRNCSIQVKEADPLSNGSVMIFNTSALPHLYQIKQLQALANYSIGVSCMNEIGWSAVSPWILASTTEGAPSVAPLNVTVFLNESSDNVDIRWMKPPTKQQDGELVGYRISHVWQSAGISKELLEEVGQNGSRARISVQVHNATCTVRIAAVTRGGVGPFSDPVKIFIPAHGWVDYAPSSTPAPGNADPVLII

[4] = target: T3, recombinant cynomolgus MerTK extracellular domain (cynomolgus, UniProt Q12866 21-505 (human entry)); assay: as above
T3 construct: The entry starts with the native signal peptide; also called cynoMerTK; cyno MerTK ECD; not shown: tag
T3 chain: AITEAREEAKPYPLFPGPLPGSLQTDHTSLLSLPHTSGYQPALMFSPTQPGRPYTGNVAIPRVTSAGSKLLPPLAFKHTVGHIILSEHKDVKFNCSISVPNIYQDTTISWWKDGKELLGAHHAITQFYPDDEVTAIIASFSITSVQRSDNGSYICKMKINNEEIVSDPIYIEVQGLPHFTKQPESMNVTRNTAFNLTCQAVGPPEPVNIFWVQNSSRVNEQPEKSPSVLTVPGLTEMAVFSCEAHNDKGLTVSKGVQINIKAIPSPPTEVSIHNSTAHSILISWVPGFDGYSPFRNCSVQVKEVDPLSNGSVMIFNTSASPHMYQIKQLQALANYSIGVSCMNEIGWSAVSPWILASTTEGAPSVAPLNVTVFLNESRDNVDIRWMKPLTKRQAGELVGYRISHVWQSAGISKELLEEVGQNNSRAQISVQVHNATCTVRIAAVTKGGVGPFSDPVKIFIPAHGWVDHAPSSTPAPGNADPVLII

[5] = target: T1, human MerTK on M2c-differentiated human …; assay: cell-based or functional assay; remark: listed apart in the source
[6] = target: T4, human MerTK overexpressed on CHO cells (CHO-huMerTK OE) (human, UniProt Q12866 21-999); assay: FACS, Dylight650-conjugated antibody on CHO-huMerTK OE cells, MFI against Ab concentration
T4 construct: also called human MerTK overexpressing CHO cells; not shown: mGFP tag of the lentiviral ORF clone
T4 sequence: T1 sequence

[7] = target: T1, human MerTK on M2c-differentiated human …; assay: cell-based or functional assay; remark: listed apart in the source
[8] = target: T4, human MerTK overexpressed on CHO cells …; assay: FACS, Dylight650-conjugated antibody titrated on CHO-huMerTK OE cells; Kd fitted in Prism from MFI
Source text: as §1

[9] = target: T5, recombinant murine MerTK extracellular domain (mouse, UniProt Q60805 19-497); assay: SPR (Carterra LSA), antibody immobilised on an HC30 chip, MerTK ECD as analyte
T5 construct: The entry starts with the native signal peptide; also called moMerTK; murine MerTK ECD; not shown: tag
T5 sequence: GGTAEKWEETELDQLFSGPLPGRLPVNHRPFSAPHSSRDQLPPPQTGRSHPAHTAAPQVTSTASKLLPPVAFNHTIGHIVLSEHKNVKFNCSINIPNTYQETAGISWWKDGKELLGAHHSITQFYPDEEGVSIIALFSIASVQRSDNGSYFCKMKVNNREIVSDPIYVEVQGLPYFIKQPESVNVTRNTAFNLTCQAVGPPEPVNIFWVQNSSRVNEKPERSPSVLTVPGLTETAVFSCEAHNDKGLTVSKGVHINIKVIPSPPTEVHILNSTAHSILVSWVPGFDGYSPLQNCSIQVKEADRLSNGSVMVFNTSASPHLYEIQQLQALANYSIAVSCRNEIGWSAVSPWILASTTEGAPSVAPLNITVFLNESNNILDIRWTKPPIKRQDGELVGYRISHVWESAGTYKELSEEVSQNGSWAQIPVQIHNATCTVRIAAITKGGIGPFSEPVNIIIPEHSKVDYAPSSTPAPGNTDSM

[10] = target: T5, recombinant murine MerTK extracellular …; assay: SPR (Carterra LSA), antibody immobilised on an HC30 chip, MerTK ECD as analyte; estimate from a 1:1 fit
Procedure: Binding kinetics of monovalent anti-MerTK antibodies of the present disclosure to human, cyno, and murine MerTK were evaluated using a Carterra LSA instrument. […] A HC30 sensor chip (Carterra) was activated using the single channel flow cell with a 7-minute injection of a 1:1:1 mixture of 100 mM MES pH 5.5, 100 mM sulfo-NHS, 400 mM EDC (all reconstituted in MES pH 5.5; 100 μl of each mixed in vial immediately before running assay). After switching to the multi-channel array flow cell, the antibodies were injected over the activated chip in a 96-spot array for 15 minutes. A duplicate injection of the antibodies on a second block of the chip was spotted as before. The remaining unconjugated active groups on the chip were then blocked by injecting 1M Ethanolamine pH 8.5 (Carterra) for 7 minutes using the single channel flow cell.
After priming with running buffer (HBS-TE, Carterra) with 0.5 mg/ml BSA (Sigma), the immobilized anti-MerTK antibodies were tested for their ability to bind to several forms of recombinant MerTK extracellular domain, including that of human, cynomolgus, and mouse orthologs as described above. Estimates of affinity were generated by injecting each analyte over the entire antibody array using the single channel flow cell. […] Dissociation was followed for 300 seconds before regenerating after each injection with 2×30 seconds of 10 mM Glycine pH2.5. Three buffer blanks were run between each series (one species per series). After all concentrations of all three species of MerTK were injected, a duplicate set of injections was performed, so that each concentration for all three species was injected in widely spaced duplicates. Data were processed and analyzed using NextGenKIT high-throughput kinetics analysis software (Carterra).

[11] = target: T1, human MerTK on M2c-differentiated human …; assay: FACS on M2c-differentiated human macrophages; reference is monovalent MTK-33.11
Source text: as §1

[12] = target: T4, human MerTK overexpressed on CHO cells …; assay: FACS on CHO-huMerTK OE cells; reference is monovalent MTK-33.11
Source text: as §1

Efferocytosis blocking Average IC50 [1]: 0.436 nM
Kd [2]: 51.9 nM
Kd [3]: 50 nM
Kd [4]: 60 nM
Average fold change in pAKT activity in the absence of huGas6 [5]: 1.57 fold
EC50 (read off the curve) [6]: ~20 nM
Average pAKT IC50 (nM) in the presence of huGas6 [7]: 3.22 nM
Kd [8]: 42.5 nM
binding result [9]: no binding
B1: bivalent anti-MerTK antibody MTK-16.2 LALAPS (antibody, human IgG1, kappa, L234A L235A, V domains shown)
VH: QVQLVQSGSELKKPGASVKVSCKASGYTFTNHGMNWVRQAPGQGLEWMGWINTYTGEPTYADDFKGRFVFSLDTSVSTAYLQISSLKAEDTAVYYCARKGVTAARYFDYWGQGTLVTVSS
VL: DIQMTQSPSSLSASVGDRVTITCRASQNVRTAVAWYQQKPGKAPKRLIYLASNRHTGVPSRFSGSGSGTEFTLTISNLQPEDFATYYCLQHWNYPLTFGGGTKLEIKR
notes: Two full-length heavy chains and two full-length light chains, human IgG1 LALAPS; Dylight650-conjugated in the FACS assay; also called MTK-16.2 bivalent LALAPS; MTK-16.2 full IgG

Efferocytosis blocking Average IC50 [1]: 37.9 nM
Kd [2]: 77.8 nM
Kd [3]: 50 nM
Kd [4]: 60 nM
Average fold change in pAKT activity in the absence of huGas6 [5]: 1.22 fold
Average pAKT IC50 (nM) in the presence of huGas6 [7]: 15.3 nM
Kd [8]: 40.5 nM
binding result [9]: no binding
B2: monovalent anti-MerTK antibody MTK-16.2 LALAPS (antibody, human IgG1, kappa, L234A L235A)
heavy: not shown
light: DIQMTQSPSSLSASVGDRVTITCRASQNVRTAVAWYQQKPGKAPKRLIYLASNRHTGVPSRFSGSGSGTEFTLTISNLQPEDFATYYCLQHWNYPLTFGGGTKLEIKRTVAAPSVFIFPPSDEQLKSGTASVVCLLNNFYPREAKVQWKVDNALQSGNSQESVTEQDSKDSTYSLSSTLTLSKADYEKHKVYACEVTHQGLSSPVTKSFNRGEC
chain: DKTHTCPPCPAPEAAGGPSVFLFPPKPKDTLMISRTPEVTCVVVDVSHEDPEVKFNWYVDGVEVHNAKTKPREEQYNSTYRVVSVLTVLHQDWLNGKEYKCKVSNKALPASIEKTISKAKGQPREPQVYTLPPSRDELTKNQVSLSCAVKGFYPSDIAVEWESNGQPENNYKTTPPVLDSDGSFFLVSKLTVDKSRWQQGNVFSCSVMHEALHNHYTQKSLSLSPGK
notes: One-armed antibody, human IgG1 LALAPS; Dylight650-conjugated in the FACS assay; also called MTK-16.2 monovalent LALAPS; MTK-16.2 monoarm

Efferocytosis blocking Average IC50 [1]: 0.341 nM
Kd [2]: 2 nM
Kd [3]: 2 nM
Kd [4]: 2 nM
Kd [10]: 50 nM
Average fold change in pAKT activity in the absence of huGas6 [5]: 1.41 fold
fold higher affinity than monovalent MTK-33.11 [11]: ~5 fold
EC50 (read off the curve) [6]: ~4 nM
Average pAKT IC50 (nM) in the presence of huGas6 [7]: 1.25 nM
Kd [8]: 0.439 nM
fold higher affinity than monovalent MTK-33.11 [12]: ~10 fold
B3: bivalent anti-MerTK antibody MTK-33.11 LALAPS (antibody, human IgG1, kappa, L234A L235A, V domains shown)
VH: QVQLVQSGAEVKKPGASVKVSCKASGYTFTSYWMHWVRQAPGQGLEWIGVIDPSDNYINYNQKFQGRVTMTRDTSTSTVYMELSSLRSEDTAVYYCAREAWTRGYFDYWGQGTLVTVSS
VL: DIQMTQSPSSLSASVGDRVTITCQASRSVRNTVAWYQQKPGKAPKLLIYYASNRYTGVPSRFSGSGSGTDFTFTISSLQPEDIATYYCQQDYRSPFTFGQGTKLEIKR
notes: Two full-length heavy chains and two full-length light chains, human IgG1 LALAPS; Dylight650-conjugated in the FACS assay; also called MTK-33.11 bivalent LALAPS; MTK-33.11 full IgG
